Assay results published in PMC12638815 (2025).

Target: hACE2 peptidase domain fused to a human Fc from IgG (human)
Experiment: BLI

hACE2 peptidase domain fused to a human Fc from IgG (human), sequence (Q9BYF1 19-615): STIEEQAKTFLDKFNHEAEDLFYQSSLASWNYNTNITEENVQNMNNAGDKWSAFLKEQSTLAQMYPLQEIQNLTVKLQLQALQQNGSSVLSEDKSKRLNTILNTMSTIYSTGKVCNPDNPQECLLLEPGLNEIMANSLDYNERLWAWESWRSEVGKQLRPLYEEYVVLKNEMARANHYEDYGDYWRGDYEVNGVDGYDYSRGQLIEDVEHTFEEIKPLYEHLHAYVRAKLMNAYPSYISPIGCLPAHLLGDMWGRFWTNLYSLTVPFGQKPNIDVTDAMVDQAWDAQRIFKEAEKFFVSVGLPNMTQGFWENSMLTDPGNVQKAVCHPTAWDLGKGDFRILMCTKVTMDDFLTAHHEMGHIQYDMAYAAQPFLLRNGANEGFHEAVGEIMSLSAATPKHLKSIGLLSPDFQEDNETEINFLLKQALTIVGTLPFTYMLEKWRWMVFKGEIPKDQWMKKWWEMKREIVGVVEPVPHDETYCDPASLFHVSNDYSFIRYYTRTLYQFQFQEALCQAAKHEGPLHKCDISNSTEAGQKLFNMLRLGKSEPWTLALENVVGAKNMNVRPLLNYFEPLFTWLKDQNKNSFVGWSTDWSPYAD

Row | Binder | koff
1 | VHH B09 (VHH) VHH: QVQLVESGGGLVQAGGSLRLSCATSRSTFSSNTIGWYRQAPGKQRELVASISTSGNTYYADSVKGRFAISRDNAENTVYLQMNSLKPEDTAVYYCNTPSRRISNFWGQGTQVTVSS | 0.000106 s⁻¹
2 | VHH B07 (VHH) VHH: EVQLQASGGGLVQAGGSLRLSCAASRSTFSTNTIGWYRQAPGKQRELVASISTSGNTYYPDSVKGRFAISRDNAENTVYLQMNSLKPEDTAVYYCNTPSRRISNFWGQGTQVTVSS | 0.0001 s⁻¹
3 | VHH B10 (VHH) VHH: QVQLVESGGGLVQAGDSLRLSCAASGRTFSSYAMGWFRQALGKEREFVAVISGSGTSTYYTDSVKGRFTISRDNAKNTVYLQMNSLKPEDTAVYYCARAKGFSTIYNQDEGRYDYWGQGTQVTVSS | 0.000411 s⁻¹
